Experiments:
Assay in all cases: Kd (EC50 corrected by depletion factor)
[1] = biological target: AGO1 (UniProt Q9UL18)
Outline: (§1)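 Free RNA oligos (0 nM to 30 μM) competed for 1 h at 4°C in HEK293-FT lysate (2.5 mg protein/well) before a 30 min, 4°C pulldown with the same oligos on NHS-Sepharose beads. Bound proteins were quantified by label-free LC-MS/MS and normalised to the control. Kd was found by multiplying EC50, from a four-parameter log-logistic fit, by a protein-dependent depletion factor.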

[2] = biological target: T1, NONO (UniProt Q15233)
T1 sequence: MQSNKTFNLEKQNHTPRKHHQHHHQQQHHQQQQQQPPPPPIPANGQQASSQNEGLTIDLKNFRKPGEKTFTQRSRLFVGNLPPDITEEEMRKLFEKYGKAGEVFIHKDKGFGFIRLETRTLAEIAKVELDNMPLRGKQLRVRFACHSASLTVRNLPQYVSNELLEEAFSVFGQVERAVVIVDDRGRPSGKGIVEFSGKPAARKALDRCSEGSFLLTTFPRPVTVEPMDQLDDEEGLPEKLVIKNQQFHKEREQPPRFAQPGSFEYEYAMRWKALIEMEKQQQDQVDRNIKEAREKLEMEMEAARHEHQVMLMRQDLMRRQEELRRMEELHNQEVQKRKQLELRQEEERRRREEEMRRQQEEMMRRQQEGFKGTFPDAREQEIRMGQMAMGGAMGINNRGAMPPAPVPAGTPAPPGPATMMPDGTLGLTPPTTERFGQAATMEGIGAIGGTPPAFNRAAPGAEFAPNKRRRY
Outline: as §1

[3] = biological target: T2, DHX30 (UniProt Q7L2E3)
T2 sequence: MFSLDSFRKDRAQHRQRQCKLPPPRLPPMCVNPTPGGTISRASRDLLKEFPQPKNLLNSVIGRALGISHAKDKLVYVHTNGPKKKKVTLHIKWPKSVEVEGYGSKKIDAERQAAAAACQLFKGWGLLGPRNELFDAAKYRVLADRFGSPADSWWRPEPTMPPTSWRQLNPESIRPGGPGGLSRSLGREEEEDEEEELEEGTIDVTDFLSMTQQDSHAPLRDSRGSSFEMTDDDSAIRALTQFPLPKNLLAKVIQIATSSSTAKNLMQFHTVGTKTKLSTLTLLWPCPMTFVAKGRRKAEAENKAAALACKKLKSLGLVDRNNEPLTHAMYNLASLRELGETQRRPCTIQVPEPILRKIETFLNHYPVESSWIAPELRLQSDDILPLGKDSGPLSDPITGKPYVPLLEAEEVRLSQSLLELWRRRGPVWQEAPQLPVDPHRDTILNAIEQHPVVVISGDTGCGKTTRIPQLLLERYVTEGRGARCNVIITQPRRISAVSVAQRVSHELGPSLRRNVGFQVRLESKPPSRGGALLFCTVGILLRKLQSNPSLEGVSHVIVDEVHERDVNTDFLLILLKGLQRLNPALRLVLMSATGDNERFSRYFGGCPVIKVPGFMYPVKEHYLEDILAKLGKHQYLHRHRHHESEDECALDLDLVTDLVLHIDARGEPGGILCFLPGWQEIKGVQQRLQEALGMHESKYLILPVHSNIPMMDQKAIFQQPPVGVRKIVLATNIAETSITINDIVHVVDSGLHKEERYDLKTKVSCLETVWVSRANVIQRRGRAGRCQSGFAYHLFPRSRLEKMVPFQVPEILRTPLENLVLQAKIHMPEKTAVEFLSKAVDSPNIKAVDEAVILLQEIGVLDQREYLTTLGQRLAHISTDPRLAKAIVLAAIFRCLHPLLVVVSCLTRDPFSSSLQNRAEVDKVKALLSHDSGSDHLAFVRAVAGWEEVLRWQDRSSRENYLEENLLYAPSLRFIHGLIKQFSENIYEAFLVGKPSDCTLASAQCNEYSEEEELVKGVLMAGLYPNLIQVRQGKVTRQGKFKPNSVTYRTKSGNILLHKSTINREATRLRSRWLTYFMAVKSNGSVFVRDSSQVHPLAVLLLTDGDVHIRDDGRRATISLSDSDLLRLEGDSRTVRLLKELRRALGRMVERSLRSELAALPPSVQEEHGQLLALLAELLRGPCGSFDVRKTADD
Outline: as §1

[4] = biological target: IGF2BP2 (UniProt Q9Y6M1)
Outline: as §1

[5] = biological target: MRPL53 (UniProt Q96EL3)
Outline: as §1

[6] = biological target: RPS10 (UniProt P46783)
Outline: as §1

[7] = biological target: T3, ERAL1 (UniProt O75616)
T3 sequence: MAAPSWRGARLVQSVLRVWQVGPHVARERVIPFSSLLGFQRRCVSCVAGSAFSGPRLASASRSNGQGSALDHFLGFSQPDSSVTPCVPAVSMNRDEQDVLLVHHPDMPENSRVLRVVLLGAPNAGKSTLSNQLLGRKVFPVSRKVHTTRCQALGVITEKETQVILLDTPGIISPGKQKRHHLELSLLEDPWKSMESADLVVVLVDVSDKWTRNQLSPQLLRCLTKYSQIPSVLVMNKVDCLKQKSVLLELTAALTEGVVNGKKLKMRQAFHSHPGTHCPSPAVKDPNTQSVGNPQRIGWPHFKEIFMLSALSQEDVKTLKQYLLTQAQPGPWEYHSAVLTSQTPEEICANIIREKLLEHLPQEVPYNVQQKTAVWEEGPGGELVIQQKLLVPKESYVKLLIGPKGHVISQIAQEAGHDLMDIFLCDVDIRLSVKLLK
Outline: as §1

[8] = biological target: T4, ZCRB1 (UniProt Q8TBF4)
T4 sequence: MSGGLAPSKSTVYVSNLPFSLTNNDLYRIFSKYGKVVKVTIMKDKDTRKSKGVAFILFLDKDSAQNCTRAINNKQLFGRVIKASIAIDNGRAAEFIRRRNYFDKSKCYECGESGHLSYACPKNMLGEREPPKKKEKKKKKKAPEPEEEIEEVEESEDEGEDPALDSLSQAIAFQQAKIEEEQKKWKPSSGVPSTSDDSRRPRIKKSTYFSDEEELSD
Outline: as §1

IGF2BP2, sequence (Q9Y6M1 whole entry): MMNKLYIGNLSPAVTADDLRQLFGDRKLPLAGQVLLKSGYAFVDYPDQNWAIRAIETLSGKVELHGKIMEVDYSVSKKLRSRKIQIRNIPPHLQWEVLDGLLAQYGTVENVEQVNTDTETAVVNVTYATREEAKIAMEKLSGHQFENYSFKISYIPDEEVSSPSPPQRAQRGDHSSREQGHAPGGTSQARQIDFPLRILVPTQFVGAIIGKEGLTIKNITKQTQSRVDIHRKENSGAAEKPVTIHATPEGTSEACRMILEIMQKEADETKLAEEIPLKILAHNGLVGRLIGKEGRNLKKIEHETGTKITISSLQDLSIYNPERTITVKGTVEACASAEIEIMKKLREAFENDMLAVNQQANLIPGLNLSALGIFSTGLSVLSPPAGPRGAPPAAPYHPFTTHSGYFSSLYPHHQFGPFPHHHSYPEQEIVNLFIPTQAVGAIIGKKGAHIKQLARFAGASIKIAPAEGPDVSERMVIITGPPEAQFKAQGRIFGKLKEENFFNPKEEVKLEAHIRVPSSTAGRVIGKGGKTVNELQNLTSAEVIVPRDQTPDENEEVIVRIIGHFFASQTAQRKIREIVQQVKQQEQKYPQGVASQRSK

## AAUAAA
[1]
  Kd: 78.7 nM
[2]
  Kd: 0.305 nM

## CUGUCCU
[3]
  Kd: 58.7 nM
[4]
  Kd: 924 nM
[5]
  Kd: 100 nM
[6]
  Kd: 116 nM

## UAUUUAU
[7]
  Kd: 25.5 nM
[8]
  Kd: 3.45 µM

Reference: the supplement of paper PMC6379048
